B1: CcGH3: GH3 protein, accession AAS02074 (protein)
chain: MAVDSVLSSPLGPPACEKDAKALQFIEEMTRNADAVQQRVLDEILTRNSQTEYLKRFKLDGVSDRETFKSRIPVVTYEDLQPEIQRIANGDRSPILSAHPISEFLTSSGTSAGERKLMPTIKEELDRRQLLYSLLMPVMNLYVPGLDKGKGLYFLFIKSETKTPGGLLARPVLTSYYKSEHFKSRPHDPYNVYTSPNEAILCADSFQSMYTQMLCGLYEREQVLRLGAVFASGLVRAIRFLQLHWPQLAHDIRTGNLNPQITNLSLCERMGKIMRPNPELADFVAGECCKENWEGIITRIWPKTKYLDVIVTGAMAQYIPTLDYYSGGLPKACTMYAASECYFGLNLNPMCKPSEVSYTIMPNMGYFEFLPHDSTTTNSSPTNLVDLVDVEVGKEYELVITTYAGLYRYRVGDILRVTGFHNSAPQFHFVRRKNVLLSIDADKTDEAELQKAVENASKLLREFNTSVVEYTSYADTKTIPGHYVIYWELLMKDLKNSPSDEVLNKCCLAMEESLNTVYRQGRVACNSIGPLEIRVVKNGTFEELMDYAISRGASINQYKVPRCVNFAPILELLDSRVMSSHFSPSLPQWTPERRR
modifications: Capsicum chinense
B2: PtGH3-1: GH3 protein, accession EEE70316 (protein, listed as Populus trichocarpa)
chain: MAIESVLSPLGPPACEKDAKALQFIEDMTANVDLVQERVLKEILTSNAETEYLQKYHLNGATDRDSFKSKIPMVTYEDLQPQIQRIANGDKSPILSSHPISEFLTSSGTSAGERKLMPTIEEEMDRRQLLYSLLMPVMNLYVPGLDKGKGLYFYFIKAEAKTPGGLVARPVLTSYYKSKQFKTRPYDPYNVITSPNETILCVDSFQSMYSQMLCGLIMREEVLRVGAVFASGLLRAIRFLQLNWKELANDISTGSLNPKVTNPSIRECMAKILKPNQELAEFITKECSDENWERIITRIWPNTKYLDVIVTGAMAQYIPTLDYYSGGLPKPCTMYASSECFFGLNLRPMSEPSEVSYTIMPNMGYFEFLPHDPSAPAFSRESPPRLLDLADLEVGKEYELVITTYSGLNRYRVGDILLVTGFYNKAPQFRFVRRKNVLLSIESDKTDEAELQKAIDNASLLLREFNTSVVEYTSYAETKIIPGHYVIYWELLVKDPANSPTEEVLNQCCLAMEESLNSVYRQSRVADNSIGPLEIRVVKNGTFEELMDYAISRGASINQYKVPRCVSFTPIMELLDSRVVSKHFSPSVPHWTPERRS
B3: MtGH3: GH3 protein, accession ABN09059 (protein, listed as Medicago truncatula)
chain: MPTSLDYDLSQKNKKTLDFIEDITTHADEIQKKVLAEILNRNANVEYLQRHGLNGHTDSETFKKLLPIITYEDIQNDINLIANGDTSPILTSNPISNFLTSSGTSGGERKLMPATEEEFGRRYLLYSYLMPIMSQFIPDLEKGKGMYLMFIKNESKTPGGIKASPVLTNYYKSSHFLNRPYDPYTNFTSPNETVLCLDSYQSMYSQLLCGLIQNNEVLRVGAVFASGLIRAIRFLEKNWRLLCNDIRTGTLDLLITDDSVREAVMKILKPNKNLADFVEGECNKGSWQGIITRLWPNTKYVDVIVTGTMSQYIPTLDYYSNGLPLVCTMYASSECYFGVNLNPLSKPCHVSYTLIPTMCYYEFLPVNRSNCEVNGSIPPSTTKSLGEKKYQEVVDLVDVKLGQEYELVVTTYAGLYRYKVGDVLKVTGFKNKAPQFSFVCRKNVVLSIESDKTDEVELQNAMKNAVTHLAPFEADVAEYTSYADTTTIPGHYVLYWELNLKGSTKIPHSVYEDCCLTIEESLNSVYRQGRVSDKSIGPLEIKIVEQGTFDKLMDYAINLGASINQYKTPRCVKFAPMVELLESRVMAKYFSPKCPKWVPGHKKWNNE
B4: GmGH3-21: GH3 protein, accession CAA42636 (protein)
chain: MAIATCDHDKNAKALQFIEDMTQNTESVQERVLAEILSQNSQTEYLKRFELNGATDRDTFKSKVPVVSYDDLKHDIHRIANGDRSPILCAHPISEFLTSSGTSAGERKLMPTIRQEMDRRQLIFSLPMPVMNQYVTDMDKGKALIFLFTKAEQKTPSGLVARPVSASMYKSDQFKNRPYDPYNVYTSPDEAILCPDSFQSMYTQMLCGLIMRHQVLRVGANFASGLLRSIHLLQLNWAQLSHDISTGTLNPKITDPAIKQRMTQILKPDPELAEFIVKECSGENWERIIPRIWPNTKYVEVVVTGAMAQYVPTLDYYSGGLPLASNIYGSSECFFGINLNPFCNPSDVSYTIMPNMGYFEFLPQDHDDASSSSGSSFTLSRLIDLDDVELGKSYEIVVTTYSGLCRYRVGDILRVTGFHNTAPQFSFVRRKNVLLSIDSDKTDEAELQNAVEKASVLLKEFKTSVVEYTSFADTKSIPGHYVIYWELLMKDSSNAPTTEALEQCCLTMEESLNAVYRQGRVADHSIGPLEIRVVKNGTFEELMDYAISRGASISQYKVPRCVTFTPITELLDSRVESVHFSPSEPHWTPERRR
modifications: Glycine max
B5: NtGH3: GH3 protein, accession AAD32141 (protein, listed as Nicotiana tabacum)
chain: MAVDSVLSSPLGPPACEKDAKALQFIEEMTRNADAVQERVLNEILTRNSQTEYLKRFKLDGVSDRETFKNKIPVVTYEDLQPEIQRIANGDRSPILSAHPISEFLTSSGTSAGERKLMPTIKEELDRRQLLYSLLMPVMNLYVPGLDKGKGLYFLFIKSETKTPGGLLARPVLTSYYKSEHFKRRPHDPYNVYTSPNEAILCADSFQSMYTQMLCGLYEREQVLRLGAVFASGLVRAIRFLQLHWPQLAHDIRTGTLNPEITDPSICERMGLVMRPNPKLADFVTDECSKENWEGIITRIWPKTKYLDVIVTGAMAQYIPTLDYYSGGLPKACTMYAASECYFGLNLNPMCKPSEVSYTIMPNMGYFEFLPHDPNSSRDSTRNLVDLVDVEVGKEYELVITTYAGLYRYRVGDILRVTGFHNSAPQFHFVRRKNVLLSIDSDKTDEAELQRAVENASKLLKEFNTSVVEYTSYADTKTIPGHYVIYWELLMKDLNNSPSDEVLNKCCLAMEESLNTVYRQGRVACNSIGPLEIRVVKNGTFEELMDYAISRGASINQYKVPRCVSFAPILELLDSRVMSRHFSPSLPQWTPERRH
B6: PtGH3-2: GH3 protein, accession EEE87842 (protein, listed as Populus trichocarpa)
chain: MAVDNALSSPLGPPACEKDAKALQFLEEMTRNADSVQEDVLAKILTQNSEVEYLKRFNLDGAIDRETFKSKIPMIRYEDLQPEIQRIANGDRSSILSAHPISEFLTSSGTSAGERKLMPTIKQELDRRQLLYSLLMPVMNLYVPGLDKGKGLYFLFVKSETRTPGGLLARPVLTSYYKSDHFKTRPYDPYNVYTSPNEAILCADSFQSMYTQMLCGLLEREQVLRVGAVFASGLLRAIRFLQLHWRELSDDIESGMLNKKITDPTVKDCMVNILKPNPKLAEFVRMECGKENWEGIITRIWPNTKYLDVIVTGAMAQYIPTLDYYSGGLPKACTMYASSECYFGLNLNPMCKPSEVCYTIMPNMAYFEFLPHEPAGISQDSTPKLVDLADVELGKEYELVITTYAGLYRYRVGDILRVTGFHNSAPQFHFVRRKNVLLSIDSDKTDEAELQTAVENASQLLREFNTSVVEYTSHADTKTIPGHYVIYWELLVKDSANSPGDEVLNQCCLAMEESLNSVYRQGRVADNSIGPLEIRVVKNGTFEELMDYAISRGASINQYKVPRCVNFTPIMELLDSRVVSKHFSPALPRWAPERRR
B7: PiGH3-16: GH3 protein, accession CAJ14972 (protein)
chain: MPQAKREEGIESVQESIIIATTERNRKALDFIEHATIHAAEVQAEVLLEILTRNAYTEYLERYQLTGRTDRKSFKERLPVITYEDLQPEILRIANGDMSPILSAHPISEFLTSSGTSAGERKIMPTIHEELKRRTLLYSLLMPVMNQYMKGLDKGKGMYFLFVKSETRTPGGLLARPVLTSYYKSQDFIERPYDPYNVYTSPMEAILCSDSYQSMYCQLLCGLAQNHEVLRVGAVFASGLLRAIRFLEEHWQSLCQDIRSGTVNDEEVTDPCLRESVMKILHPNTQLADLIRTECSKESWQGIITRLWPNARYLDVIVTGAMAQYIKTLDFYSGGLPQVCTMYASSECYFGINLKPLCQPWEVSYTLMPNMAFFEFLPVYRNKNEDAGPVTTATEQPAELVDLVDVKVGQEYELVITTYSGLYRYRVGDVLRVTGFHNAAPQFQFVCRKNVMLSIDADKTDEAELHNAVMNAVKHLEPLEATLVEYTSYTDTSTIPGHYVLYWELRTSALPVPPSVFEDCCLTVEESLNSVYRQCRVADKSIGPLEIKVVEMGTFDKLMDYAISRGSSINQYKAARCVKFAPMVDILNSRVSASYFSPRCPKWTAGRTQWGALPR
modifications: Pinus pinaster

A short description of one series: LC-MS assay of GH3 conjugation of 2,4-D with Asp or Glu. In kind it is biochemical. The settings on record: conjugation of 2,4-D with Asp by recombinant GH3 protein; 2,4-D-Asp product by LC-MS; 5 mM 2,4-D substrate. In outline:
(§1)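 N-terminal His-tagged GH3 homologs, expressed in E. coli C41(DE3) and Ni-NTA purified, at 44 to 164 μg/mL incubated 3 h at 30 °C in 20 mM Tris-HCl pH 8.0, 5 mM MgCl2, 1 mM DTT, 5 mM ATP, 5 mM auxin (IAA, 2,4-D or dicamba) and 5 mM Asp or Glu. Conjugates quantified by LC-MS against standards after MeOH precipitation; kinetics from Michaelis-Menten fits of initial velocities.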
In the case of B1, the “kcat (hrs−1) 2,4-D-Asp” value amounted to 2.517 h⁻¹.

Consider B2, for which the “kcat (hrs−1) 2,4-D-Asp” value was determined as 4.798 h⁻¹.

With B3, the “kcat (hrs−1) 2,4-D-Asp” value was determined as 1.494 h⁻¹.

As for B4, the “kcat (hrs−1) 2,4-D-Asp” value worked out at 27.468 h⁻¹.

In the case of B5, the “kcat (hrs−1) 2,4-D-Asp” value worked out at 1.990 h⁻¹.

As to B6, the “kcat (hrs−1) 2,4-D-Asp” value came out at 0.934 h⁻¹.

In the case of B7, the “kcat (hrs−1) 2,4-D-Asp” value is 0.379 h⁻¹.

Still in this series, the particulars now being: conjugation of 2,4-D with Glu by recombinant GH3 protein; 2,4-D-Glu product by LC-MS; 5 mM 2,4-D substrate.
With B1, the “kcat (hrs−1) 2,4-D-Glu” value was determined as 0.577 h⁻¹.

Consider B2, for which the “kcat (hrs−1) 2,4-D-Glu” value was found to be 0.181 h⁻¹.

B3: the “kcat (hrs−1) 2,4-D-Glu” value was determined as 0.122 h⁻¹.

On to B4, for which the “kcat (hrs−1) 2,4-D-Glu” value stood at 22.910 h⁻¹.

On to B5, for which the “kcat (hrs−1) 2,4-D-Glu” value is 0.804 h⁻¹.

In the case of B6, the “kcat (hrs−1) 2,4-D-Glu” value came to 0.203 h⁻¹.

Turning to B7, the “kcat (hrs−1) 2,4-D-Glu” value worked out at 0.089 h⁻¹.

A further series can be described thus: LC-MS assay of GH3 conjugation of IAA with Asp or Glu. In kind it is biochemical. The settings on record: conjugation of IAA with Asp by recombinant GH3 protein; IAA-Asp product by LC-MS. Put shortly: as §1
In the case of B1, the “kcat (hrs−1) IAA-Asp” value was determined as 414.234 h⁻¹.

In the case of B2, the “kcat (hrs−1) IAA-Asp” value amounted to 900.907 h⁻¹.

As for B3, the “kcat (hrs−1) IAA-Asp” value stood at 337.033 h⁻¹.

With B4, the “kcat (hrs−1) IAA-Asp” value came to 1087.519 h⁻¹.

As to B5, the “kcat (hrs−1) IAA-Asp” value is 716.658 h⁻¹.

On to B6, for which the “kcat (hrs−1) IAA-Asp” value stood at 679.646 h⁻¹.

Take B7: the “kcat (hrs−1) IAA-Asp” value came out at 656.761 h⁻¹.

The series is the same for the next values; noted with them: conjugation of IAA with Glu by recombinant GH3 protein; IAA-Glu product by LC-MS.
In the case of B1, the “kcat (hrs−1) IAA-Glu” value was determined as 15.608 h⁻¹.

For the molecule B2, the “kcat (hrs−1) IAA-Glu” value is 39.695 h⁻¹.

As for B3, the “kcat (hrs−1) IAA-Glu” value was 11.549 h⁻¹.

For B4, the “kcat (hrs−1) IAA-Glu” value was 1075.524 h⁻¹.

B5: the “kcat (hrs−1) IAA-Glu” value came out at 34.341 h⁻¹.

B6: the “kcat (hrs−1) IAA-Glu” value was 53.401 h⁻¹.

In the case of B7, the “kcat (hrs−1) IAA-Glu” value turned out to be 51.037 h⁻¹.

For the origin of these results see patent publication US20150351390A1, “COMPOSITIONS AND METHODS FOR AUXIN-ANALOG CONJUGATION” (PIONEER HI-BRED INTERNATIONAL, INC., priority 2012, published 2015).
